The supplement of paper PMC10567573

B1: CDC25A (parent)
chain: QLIDPDENKENEAFEFKKPVRPVS
B2: PTPN9 (parent)
chain: IDFLRVVRNQQSLAVSNMGARSKG

Variants of: B1
Assay: protein stability index of a GFP-peptide fusion (GPS, HEK-293T) (PSI 1-6); higher = more stable
Conditions: c terminus: a fixed tail appended
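Also: lentivirally expressed fusions sorted by FACS into six bins by GFP to DsRed ratio, PSI derived from sequencing read proportions per bin multiplied by bin number.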

Protein stability index of substitutions, site by site:
R21: H 3.85; I 3.39; K 4.04; L 3.8; M 3.81; N 5; P 4.46; Q 4.67; T 4.04; V 3.19; W 3.28
P22: A 3.23; C 4.98; D 4.45; F 3.69; G 3.66; H 3.38; I 4.31; K 3.25; L 3.45; M 4.08; N 4.14; R 4.23; S 4.05; T 2.8; V 4.05; Y 4.71
V23: A 4.32; C 3.9; D 4.41; E 4.1; F 3.89; G 4.05; H 4.05; I 3.43; K 3.85; M 2.46; N 3.51; P 3.52; Q 4.04; R 3.11; S 3.09; Y 3.32
S24: A 4.16; C 3.5; D 5.24; E 4.67; F 3.88; G 3.54; H 2.87; K 4.72; L 3.21; M 3.49; N 3.34; P 4.33; Q 4.25; R 3.58; V 3.76; W 3.3; Y 3.73

Variants of: B2
Assay: as above
Conditions: c terminus: a fixed tail appended

Protein stability index: each site, then its substitutions
I1: A 3.18; C 2.8; D 4.38; E 4; F 2.75; G 3.72; H 3.96; K 3.59; L 2.95; M 2.96; N 3.83; P 4.25; Q 4.35; R 3.35; S 3.1; T 3.43; V 3.03; W 2.88; Y 3.47
D2: A 1.82; C 2.06; E 2.54; F 2.33; G 2.64; H 2.41; I 2.35; K 1.42; L 1.53; M 1.38; N 2.06; P 2.54; Q 1.88; R 2.03; S 2.55; T 2.05; V 2.84; W 2.16; Y 1.78
F3: A 3.55; C 3.89; D 4.21; E 4.29; G 4.02; H 4.36; I 2.34; K 3.93; L 2.47; M 2.75; N 4.45; P 4.2; Q 3.89; R 3.69; S 3.88; T 4.5; V 3.78; W 2.17; Y 2.4
L4: A 3.04; C 2.94; D 4.58; E 4.22; F 2.3; G 3.69; H 3.35; I 1.69; K 3.25; M 2.48; N 3.48; P 3.86; Q 3.37; R 3.06; S 3.6; T 3.33; V 2.6; W 1.72; Y 1.89
R5: A 2.06; C 1.48; D 3.71; E 3.47; F 2.88; G 2.81; H 3.15; I 2.69; K 2.39; L 2.38; M 2.81; N 3.24; P 3.73; Q 3.27; S 3; T 2.45; V 1.83; W 2; Y 2.54
V6: A 3.12; C 2.42; D 3.26; E 3.36; F 2.26; G 3.53; H 2.67; I 1.99; K 2.8; L 2.5; M 1.99; N 3.35; P 3.31; Q 2.8; R 2.38; S 3.36; T 3.23; W 2.74; Y 2.13
V7: A 3.7; C 3.07; D 3.16; E 3.73; F 1.84; G 2.96; H 3.26; I 2.41; K 2.66; L 1.85; M 2.03; N 3.53; P 2.94; Q 2.97; R 3.37; S 3.61; T 2.98; W 2.91; Y 2.23
R8: A 2.54; C 2.27; D 3.22; E 3; F 1.47; G 2.37; H 2.32; I 2.65; K 2.26; L 2.04; M 1.46; N 2.27; P 2.51; Q 2.32; S 1.8; T 2.13; V 1.88; W 1.94; Y 1.78
N9: A 1.94; C 1.96; D 3.66; E 2.67; F 2.66; G 2.3; H 2.57; I 1.67; K 2.58; L 1.61; M 1.88; P 2.78; Q 2.14; R 2.44; S 2.15; T 2.28; V 1.89; Y 1.93
Q10: A 2.06; C 1.89; D 2.63; E 2.87; F 2.35; G 3.19; H 2.49; I 1.95; K 2.27; L 2.2; M 2.54; N 2.39; P 2.74; R 2.19; S 1.43; T 2.4; V 2.02; W 2.02; Y 2.35
Q11: A 1.99; C 1.91; D 2.57; E 2.35; F 1.95; G 2.35; H 2.26; I 1.8; K 2.26; L 1.81; M 2.1; N 2.84; P 2.37; R 2.31; S 2.31; T 2.29; V 1.67; W 1.34; Y 2.12
S12: A 2.04; C 1.89; D 2.75; E 2.65; F 2.26; G 2.48; H 2.41; I 1.99; K 2.55; L 2.31; M 2.22; N 2.1; P 2.46; Q 2.02; R 2.52; T 2.15; V 2.34; W 1.69; Y 1.8
L13: A 2.73; C 2.14; D 3.08; E 3.58; F 2.34; G 3.24; H 2.45; I 2.31; K 2.75; M 2.51; N 3.2; P 2.96; Q 3.3; R 2.34; S 2.7; T 2.57; V 2.85; W 2.72; Y 2.57
A14: C 2.01; D 2.17; E 1.95; F 2.23; G 2.3; H 2.48; I 1.8; K 2.13; L 1.76; M 2.66; N 2.4; P 2.7; Q 2.09; R 2.13; S 2.23; T 2.64; V 2.22; W 2.39; Y 2.04
V15: A 2.82; C 2.28; D 2.52; E 2.69; F 2.18; G 2.83; H 2.56; I 1.97; K 2.62
